Assay results taken from the supplement of paper PMC12764529.
± gives the half width of the 95% confidence interval.

Experiments:
[1] = folding stability dG unfold (combined trypsin and chymotrypsin); higher = more stable
How it was run: (§1)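 Sequencing followed digestion of designed mini-proteins with trypsin and chymotrypsin, each at 11 concentrations in threefold dilutions together with a no-protease condition. The mini-proteins were under 80 residues, had no cysteine, sat in a PA-tagged cDNA display construct, and were kept only if AlphaFold2 dimer inter-PAE was above 15. From the counts, Bayesian fitting gave K50, and unfolding free energy was derived against a sequence-predicted unfolded-state K50 and a shared folded-state K50, per protease or combined.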

[2] = folding stability dG unfold from trypsin proteolysis; higher = more stable
How it was run: as §1

[3] = folding stability dG unfold from chymotrypsin proteolysis; higher = more stable
How it was run: as §1

| Sequence | folding stability dG unfold [1] | folding stability dG unfold [2] | folding stability dG unfold [3] |
| --- | --- | --- | --- |
| SDKLAKLLEDELEKAGYEVVSVEVRYDPEKGLLYVNALVRRKDDPTWYRVRAVYNPETDELLEVKIEPLPSA [r9_814_TrMRF] | > 6 kcal/mol | 5.58 ± 0.21 kcal/mol | 6.29 ± 0.11 kcal/mol |
| SAGGSAGGMKVTTEGNAAGTNTVTVSYPDGSSVTRTLAPDDVVEVPVGGEVVLTVTVTANPDLPSAGGSAGG [r6_583_JUSTAS] | -0.0541 ± 0.12 kcal/mol | -0.0728 ± 0.1 kcal/mol | 0.0101 ± 0.061 kcal/mol |
| SSMSIEIKEVEEDPVGSEAKPRVVREKVTLEGTEVELTVTVTEAPSGETTVTTTLTFPGSGKTFSFTFDTSA [r9_241_JUSTAS] | 2.62 ± 0.058 kcal/mol | 1.9 ± 0.052 kcal/mol | 3.05 ± 0.044 kcal/mol |
| SAGGSLRQLIRALFKKKGIPIEPEKVDPNWVTFKVPNKDVKIDLPDGNKIEIKPNGYVRIRIPPDDLSAGGS [r8_297_TrROS] | -0.1 ± 0.4 kcal/mol | -0.172 ± 0.68 kcal/mol | -0.354 ± 0.89 kcal/mol |
| SAGGSAGGSMNVSPEELEALARERIEALLAENPDVPRDDVVLEFEGRSESPGKVITLTLRVRASAGGSAGGS [r12_707_JUSTAS] | 0.0895 ± 0.21 kcal/mol | 0.242 ± 0.14 kcal/mol | -0.00174 ± 0.23 kcal/mol |
| SAGGSAGGSAGGPKLVLKIKTEIKIEKKLEFDPETGELTEEIEIEIKIEIELEPLPEGLSAGGSAGGSAGGS [r10_376_TrROS_Hall] | 2.83 ± 0.96 kcal/mol | 1.32 ± 0.25 kcal/mol | 3.24 ± 0.35 kcal/mol |
| SAGGSAGGSGGMMKVIVSVSPGEEAVEKVNKLVNETDLPPIEVIIIPHSPDDPIVVAILLLLLSAGGSAGGS [r12_649_JUSTAS] | 2.73 ± 0.057 kcal/mol | 2.33 ± 0.053 kcal/mol | 3.12 ± 0.032 kcal/mol |
| SAGDEIEEKVKEILEKLNPDEPVVIKRTKDGRILAENPKTGKFIIFDISPDGTIKIVKVVPAEEAKKLGSAG [r5_852_TrMRF] | 2.18 ± 0.19 kcal/mol | 1.47 ± 0.12 kcal/mol | 2.52 ± 0.071 kcal/mol |
| SAGGSADIKIIKLPEKNELVILVPGEFDENVPLVLHDEGGPSWEVVDARVERVGDDLIITAKVRKSSAGGSA [r15_838_TrMRF] | 0.691 ± 0.099 kcal/mol | 0.594 ± 0.037 kcal/mol | 0.701 ± 0.049 kcal/mol |
| SAGGSAGGMKIEIFQNDDGIYVRIKLKPPNGPPRTMVFPFTANQIKDALKQFPNYKIEDIEVYRSAGGSAGG [r6_879_TrROS] | 1.9 ± 0.15 kcal/mol | 1.47 ± 0.12 kcal/mol | 2.18 ± 0.09 kcal/mol |
| SAGGSAGGSRIIFRIPPEFRENMPIEEIVEEFLPPGMPVEIEWERTPDPWYVTVDIEIPPGQLSAGGSAGGS [r12_716_TrROS] | 0.334 ± 0.27 kcal/mol | 0.364 ± 0.16 kcal/mol | 0.325 ± 0.33 kcal/mol |
| SAGGMLEEVAEELAKELNATAREFTTVGDVPRILLTFKVPGSSTYLEVTLTLPPDGSVERTTKPIAASAGGS [r16_433_JUSTAS] | 1.3 ± 0.14 kcal/mol | 0.974 ± 0.047 kcal/mol | 1.7 ± 0.17 kcal/mol |
| SAGGPGWVTVEFWIPIEPDPNQTRDDVKEKAEEIVHEMAEYHPQFGITNVKVDVDPEEGWVKVSIVWPSAGG [r13_1011_TrROS] | 1.49 ± 0.24 kcal/mol | 1.47 ± 0.16 kcal/mol | 1.58 ± 0.15 kcal/mol |
| SAGGSAGGSAMVITKTTASVEEVKEEIKKEYPNANVKITKVSTSADGKTTYKIEIKIPKNNKSAGGSAGGSA [r18_464_JUSTAS] | 2 ± 0.16 kcal/mol | 0.586 ± 0.067 kcal/mol | 2.5 ± 0.033 kcal/mol |
| SAGGSAGGSAGMEPIRVTVTTQDTATGTTTTTTVTVPTDVPVEAVLAALDPALVTAVTVESAGGSAGGSAGG [r11_386_JUSTAS] | 0.808 ± 0.11 kcal/mol | 1.68 ± 0.061 kcal/mol | -0.172 ± 0.072 kcal/mol |
| SAGGSAGGEPETIEIKMTPEELEELARELEKEGYTIEVEVVEEKVVGPDGKEREVVVRVRVEKRSAGGSAGG [r6_857_TrROS_Hall] | 1.1 ± 0.099 kcal/mol | 0.991 ± 0.03 kcal/mol | 1.32 ± 0.04 kcal/mol |
| SAGGSAGGSAGGKKVKVIKVSVTYDPKTKKLTIKVEKTGKTYTIPLKEIELVNGYLKIKSAGGSAGGSAGGS [r10_942_TrROS_Hall] | 2.21 ± 0.34 kcal/mol | 1.78 ± 0.11 kcal/mol | 2.45 ± 0.11 kcal/mol |
| SAGGNLDKEFVRDIIENFGFTRIEVEEHPNRKVVTFRFENMDVVIRPDGQIEIENPGGEPVFQIEVPSAGGS [r8_147_TrROS] | 1.53 ± 0.21 kcal/mol | 1.31 ± 0.031 kcal/mol | 1.63 ± 0.11 kcal/mol |
| SAGGSAGGSMKNIKEIKVERRKLPNGGEYYVVTITYPDGKEIIIEMSPEETLEEALEKAKELSSAGGSAGGS [r12_1047_JUSTAS] | 2.92 ± 0.13 kcal/mol | 2.87 ± 0.16 kcal/mol | 3.01 ± 0.21 kcal/mol |
| SAGGSSMEVEIDTSKSTTTYTHPSGEKVATRSLVLTPPSPGDPLRFLNVEFEKLPDGSVVVKKIVGSAGGSA [r2_362_JUSTAS] | -0.0806 ± 0.22 kcal/mol | -0.338 ± 0.17 kcal/mol | -0.142 ± 0.32 kcal/mol |
| SAGGSAGGSAKTITITVKPEDMTEEELKEKIAEELGIDPEEIEIVKVEKLPNGEVKVTIKIKSAGGSAGGSA [r18_118_TrROS_Hall] | 3.08 ± 0.16 kcal/mol | 3.59 ± 0.17 kcal/mol | 1.93 ± 0.11 kcal/mol |
